Laboratory results reported in US20260000752A1.

Target: human IgG (used as a control) (human)
Experiment: ELISA pH 7.4; human IgG control coated, biotinylated FcRn titrated, streptavidin-HRP

**Q.** “recombinant human FcRn, biotinylated (R&D Systems) (from UniProt P55899 24-297; P61769 21-119) (receptor)” was tested. Which EC50 did it give?
**A.** 0.0292 µg/mL
